The term Kd denotes the concentration at which binding is half-saturated. A lower Kd goes with higher affinity.

Experimental findings from the Immune Epitope Database (IEDB) are described below.

The target in assay [1] is HLA-B*48:01. Briefly: IEDB peptide-MHC binding, purified MHC/direct/fluorescence; filed as Kd, often an IC50 or EC50 that approximates it; ≥ and ≤ were set here for values at or beyond the usual limits of such assays.
The next assay concerns the target HLA-B*73:01. The description is as above. Conditions: source organism: Mycobacterium tuberculosis str. Haarlem.
The target of the next assay is HLA-B*27:05. Described as above.
The target of assay [2] is HLA-B*18:01. The assay is described as above.
Assay [3] deals with HLA-B*15:01. The assay is described as above.
In another assay the target is HLA-B*46:01. The description is as above.
Another assay addresses HLA-B*57:01. The description is as above.
For another assay, the target named is HLA-B*08:02. Described as above.
In another assay the target is HLA-B*58:01. Described as above.
A further assay concerns the target HLA-A*29:02. The assay is described as above.
Another assay has as its target HLA-B*08:01. The description is as above.
Another assay has as its target HLA-B*44:02. The description is as above.
Another assay concerns the target HLA-A*26:02. Put plainly: IEDB peptide-MHC binding, purified MHC/competitive/fluorescence; filed as Kd, often an IC50 or EC50 that approximates it; ≥ and ≤ were set here for values at or beyond the usual limits of such assays. Conditions: source organism: Orthomarburgvirus marburgense.
For assay [4], the target named is HLA-B*18:01. Described as above. Particulars: source organism: Orthomarburgvirus marburgense.
For assay [5], the target named is HLA-B*15:01. Described as above. Particulars: source organism: Orthomarburgvirus marburgense.
The next assay deals with HLA-A*02:06. The assay is described as above. Conditions: source organism: Orthomarburgvirus marburgense.
The next assay concerns the target HLA-B*35:01. Described as above. Conditions: source organism: Orthomarburgvirus marburgense.
Another assay concerns the target HLA-B*08:03. Put plainly: IEDB peptide-MHC binding, purified MHC/direct/fluorescence; filed as Kd, often an IC50 or EC50 that approximates it; ≥ and ≤ were set here for values at or beyond the usual limits of such assays.
The next assay deals with HLA-A*26:03. The description is as above. Particulars: source organism: Ravn virus - Ravn, Kenya, 1987.
Another assay addresses HLA-A*68:02. Described as above. Particulars: source organism: Marburg virus - Musoke, Kenya, 1980.
The target of the next assay is HLA-A*24:03. Described as above. Conditions: source organism: Marburg virus - Musoke, Kenya, 1980.
In a further assay the target is HLA-A*69:01. The description is as above.
A further assay deals with HLA-A*11:01. The assay is described as above.
The target of another assay is HLA-A*02:01. Described as above.
Another assay deals with HLA-B*15:17. The assay is described as above. Particulars: source organism: Marburg virus - Musoke, Kenya, 1980.
The target in a further assay is HLA-A*01:01. Described as above.
The target in the next assay is HLA-A*31:01. Described as above.
The target of another assay is HLA-B*07:02. Described as above.
Another assay addresses HLA-A*23:01. The description is as above. Particulars: source organism: Marburg virus - Musoke, Kenya, 1980.
For another assay, the target named is HLA-A*24:02. Described as above. Conditions: source organism: Marburg virus - Musoke, Kenya, 1980.
The target in assay [6] is HLA-B*48:01. Briefly: IEDB peptide-MHC binding, purified MHC/competitive/fluorescence; filed as Kd, often an IC50 or EC50 that approximates it; ≥ and ≤ were set here for values at or beyond the usual limits of such assays. Particulars: source organism: Orthomarburgvirus marburgense.
Another assay has as its target HLA-A*26:01. Put plainly: IEDB peptide-MHC binding, purified MHC/direct/fluorescence; filed as Kd, often an IC50 or EC50 that approximates it; ≥ and ≤ were set here for values at or beyond the usual limits of such assays. Conditions: source organism: Ravn virus - Ravn, Kenya, 1987.
A further assay addresses HLA-B*15:09. The assay is described as above. Conditions: source organism: Ravn virus - Ravn, Kenya, 1987.
For the next assay, the target named is HLA-B*39:01. The description is as above. Particulars: source organism: Marburg virus - Musoke, Kenya, 1980.
In another assay the target is HLA-B*40:01. The assay is described as above.
The target of a further assay is HLA-A*03:01. Described as above. Particulars: source organism: Vibrio cholerae.
Setting [7] is: source organism: Mycobacterium tuberculosis.
The mark [8] stands for this setting: source organism: Mammarenavirus lassaense.
[9] abbreviates: source organism: Ravn virus - Ravn, Kenya, 1987.
[10] abbreviates: source organism: Marburg virus - Musoke, Kenya, 1980.
Where [11] appears, read: source organism: Vibrio cholerae.

For the sequence QRIAVPVTK, the results for the equilibrium dissociation constant (Kd) with HLA-B*48:01 [1] (setting [7]), in the assay with HLA-B*73:01 and with HLA-B*27:05 (setting [7]) were at least 20 µM, at least 20 µM and 0.095 µM, respectively.

Take QLDQRRALL: the Kd with HLA-B*18:01 [2] (setting [8]) is at least 20 µM; in the assay with HLA-B*15:01 [3] (setting [8]), at least 20 µM; with HLA-B*48:01 [1] (setting [8]) it was at least 20 µM; with HLA-B*46:01 (setting [8]), at least 20 µM; with HLA-B*57:01 (setting [8]) it was at least 20 µM; with HLA-B*08:02 (setting [8]), 15.1 µM. In addition, the Kd in the assay with HLA-B*27:05 (setting [8]) is at least 20 µM; with HLA-B*58:01 (setting [8]) it was at least 20 µM; with HLA-A*29:02 (setting [8]), at least 20 µM; with HLA-B*08:01 (setting [8]), 0.773 µM; with HLA-B*44:02 (setting [8]) it was at least 20 µM.

For GFPSLESSF, the Kd was at least 20 µM with HLA-A*26:02; 0.263 µM with HLA-B*18:01 [4]; at least 20 µM with HLA-B*15:01 [5]; 2.92 µM with HLA-A*02:06; 0.877 µM with HLA-B*35:01; at least 20 µM with HLA-B*08:03 (setting [9]). The Kd in the assay with HLA-A*26:03 was at least 20 µM; with HLA-A*68:02 it was at least 20 µM; in the assay with HLA-A*24:03 it was 0.0395 µM; with HLA-A*69:01 (setting [10]), at least 20 µM; with HLA-B*57:01 (setting [10]), at least 20 µM; in the assay with HLA-A*11:01 (setting [10]) it was at least 20 µM. The Kd with HLA-B*58:01 (setting [10]), with HLA-B*08:01 (setting [9]), with HLA-A*02:01 (setting [10]), with HLA-B*15:17, with HLA-A*01:01 (setting [10]) and with HLA-A*31:01 (setting [10]) was at least 20 µM throughout. Besides, the Kd was at least 20 µM with HLA-B*07:02 (setting [10]), 0.0555 µM with HLA-A*23:01 and 0.26 µM in the assay with HLA-A*24:02.

Take THYSGNIVH: the Kd with HLA-A*26:02, in the assay with HLA-B*48:01 [6], in the assay with HLA-B*18:01 [2] (setting [10]), with HLA-A*68:02, in the assay with HLA-B*15:01 [3] (setting [10]) and with HLA-A*69:01 (setting [10]) was at least 20 µM each time. Besides, the Kd with HLA-B*46:01 (setting [10]), with HLA-B*57:01 (setting [10]), with HLA-B*08:02 (setting [9]), with HLA-B*27:05 (setting [10]), in the assay with HLA-B*58:01 (setting [10]) and in the assay with HLA-B*08:01 (setting [9]) was at least 20 µM in each case. Besides, the dissociation constant (Kd) in the assay with HLA-A*02:01 (setting [10]) was at least 20 µM; in the assay with HLA-B*15:17, at least 20 µM; with HLA-A*01:01 (setting [10]), at least 20 µM; in the assay with HLA-B*07:02 (setting [10]), at least 20 µM; in the assay with HLA-A*26:01, at least 20 µM; with HLA-B*15:09 it was 0.046 µM. Further, the Kd was 0.0274 µM with HLA-B*39:01 and at least 20 µM in the assay with HLA-B*40:01 (setting [10]).

Turning to VLKLRFWLI, the dissociation constant (Kd) in the assay with HLA-B*08:03 (setting [11]) is 0.188 µM; with HLA-B*18:01 [2] (setting [11]), at least 20 µM; with HLA-B*15:01 [3] (setting [11]), at least 20 µM; with HLA-B*48:01 [1] (setting [11]), at least 20 µM; with HLA-A*69:01 (setting [11]), at least 20 µM; with HLA-B*46:01 (setting [11]), at least 20 µM. Also, the Kd in the assay with HLA-B*57:01 (setting [11]), with HLA-B*08:02 (setting [11]), in the assay with HLA-B*27:05 (setting [11]), with HLA-A*11:01 (setting [11]), with HLA-B*58:01 (setting [11]) and with HLA-A*29:02 (setting [11]) was at least 20 µM each time. For the same sequence, the Kd with HLA-B*08:01 (setting [11]) was 0.034 µM; in the assay with HLA-A*02:01 (setting [11]) it was at least 20 µM; in the assay with HLA-A*01:01 (setting [11]), at least 20 µM; in the assay with HLA-A*31:01 (setting [11]), at least 20 µM; with HLA-B*07:02 (setting [11]) it was at least 20 µM; in the assay with HLA-A*03:01, at least 20 µM. Further, the Kd with HLA-B*44:02 (setting [11]) and with HLA-B*40:01 (setting [11]) was at least 20 µM each time.
